{
  "source": "paper doi:10.1101/2022.01.21.477263",
  "assay_in_all_cases": "crystal structure",
  "key": {"[1]": {"molecular_target": "HIV-1 (M) CA R120 (arginine restored at CA position 120) (HIV-1 group M)"}, "[2]": {"molecular_target": "HIV-1 (M-group) CA Q50Y, disulfide-stabilised hexamer construct (A14C, E45C, Q50Y, W184A, M185A) (HIV-1 group M)"}, "[3]": {"molecular_target": "HIV-1 (O-group) CA, disulfide-stabilised hexamer construct (A14C, E45C, W185A, M186A) (HIV-1 group O)"}, "[4]": {"molecular_target": "SIVcpz CA, disulfide-stabilised hexamer construct (P14C, E45C, W184A, M185A) (SIVcpz (SIVcpzPtt))"}, "[5]": {"molecular_target": "SIVmac CA, disulfide-stabilised hexamer construct (P13C, E44C, W182A, M183A) (SIVmac)"}},
  "data": [
    {"substance": "HIV-1 (M) CA R120 (arginine restored at CA position 120) (natural protein)", "values": [
      {"measurement": "stoichiometry N", "setting": "[1]", "result": 6}
    ]},
    {"substance": "HIV-1 (M-group) CA Q50Y, disulfide-stabilised hexamer construct (A14C, E45C, Q50Y, W184A, M185A) (natural protein)", "values": [
      {"measurement": "stoichiometry N", "setting": "[2]", "result": 6}
    ]},
    {"substance": "HIV-1 (O-group) CA, disulfide-stabilised hexamer construct (A14C, E45C, W185A, M186A) (natural protein)", "values": [
      {"measurement": "stoichiometry N", "setting": "[3]", "result": 6}
    ]},
    {"substance": "SIVcpz CA, disulfide-stabilised hexamer construct (P14C, E45C, W184A, M185A) (natural protein)", "values": [
      {"measurement": "stoichiometry N", "setting": "[4]", "result": 6}
    ]},
    {"substance": "SIVmac CA, disulfide-stabilised hexamer construct (P13C, E44C, W182A, M183A) (natural protein)", "values": [
      {"measurement": "stoichiometry N", "setting": "[5]", "result": 6}
    ]}
  ]
}
